Earlier results as cited in patent US20060189533A1, “Stable pharmaceutical dosage forms of teriparatide” (Nastech Pharmaceutical Company Inc., priority 2004, published 2006).
Read-outs that look alike come from different tables or passages of the source. Where no end group is shown, it is not given here.

Tests used:
[1] = anesthetized rats
[2] = up to 500 μg per day for 7 days; up to 1,000 μg per day for 3 months
ovariectomized rat = ovariectomized rat model

human growth hormone: protein whose nasal bioavailability is reported to be modestly increased by N-acetyl-L-cysteine
nasal bioavailability ([1]; before increase by N-acetyl-L-cysteine): 7.5%
nasal bioavailability ([1]; with N-acetyl-L-cysteine): 12.2%

CC[C@H](C)[C@H](NC(=O)[C@H](CCC(=O)O)NC(=O)[C@H](CO)NC(=O)[C@@H](NC(=O)[C@@H](N)CO)C(C)C)C(=O)N[C@@H](CCC(N)=O)C(=O)N[C@@H](CC(C)C)C(=O)N[C@@H](CCSC)C(=O)N[C@@H](Cc1cnc[nH]1)C(=O)N[C@@H](CC(N)=O)C(=O)N[C@@H](CC(C)C)C(=O)NCC(=O)N[C@@H](CCCCN)C(=O)N[C@@H](Cc1cnc[nH]1)C(=O)N[C@@H](CC(C)C)C(=O)N[C@@H](CC(N)=O)C(=O)N[C@@H](CO)C(=O)N[C@@H](CCSC)C(=O)N[C@@H](CCC(=O)O)C(=O)N[C@@H](CCCN=C(N)N)C(=O)N[C@H](C(=O)N[C@@H](CCC(=O)O)C(=O)N[C@@H](Cc1c[nH]c2ccccc12)C(=O)N[C@@H](CC(C)C)C(=O)N[C@@H](CCCN=C(N)N)C(=O)N[C@@H](CCCCN)C(=O)N[C@@H](CCCCN)C(=O)N[C@@H](CC(C)C)C(=O)N[C@@H](CCC(N)=O)C(=O)N[C@@H](CC(=O)O)C(=O)N[C@H](C(=O)N[C@@H](Cc1cnc[nH]1)C(=O)N[C@@H](CC(N)=O)C(=O)N[C@@H](Cc1ccccc1)C(=O)O)C(C)C)C(C)C [Teriparatide]
safety of the intranasal route [2]: no safety concerns were noted

hPTH1-31NH2: linear PTH analogue with only AC-stimulating activity, SEQ ID NO: 3 (SVSEIQLMHNLGKHLNSMERVEWLRKKLQDV-NH2; listed as Homo sapiens)
activity in the restoration of bone loss (ovariectomized rat): fully active
